For seven molecules, fold decrease in affinity against GWTTF and Kd results are on record in paper doi:10.1101/2024.03.07.583918.

This assay has as its target CheR of Pectobacterium atrosepticum SCRI1043 (Pectobacterium atrosepticum SCRI1043). The assay is described as follows: ITC. (In ITC the heat of successive injections is recorded.)

B1: GWTTF pentapeptide with substitution of G by D at position 1 (peptide)
peptide: DWTTF
In turn, B1 gave a fold decrease in affinity against GWTTF of 2.6 fold.

B2: NWTTF pentapeptide (peptide)
peptide: NWTTF
For orientation: Kd means the constant that tells how readily two partners part at equilibrium. A lower Kd goes with a tighter complex. Molecule B2 displayed a dissociation constant Kd of 1000 nM.

B3: GWTTF pentapeptide (peptide)
peptide: GWTTF
Molecule B3 gave a dissociation constant (Kd) of 90 nM.

B4: GWQRF pentapeptide (peptide)
peptide: GWQRF
Molecule B4 yielded an equilibrium dissociation constant (Kd) of 540 nM.

B5: DWTSF pentapeptide (peptide)
peptide: DWTSF
B5: the dissociation constant (Kd) worked out at 360 nM.

B6: GWEKF pentapeptide (peptide)
peptide: GWEKF
With B6, the Kd was found to be 200 nM.

B7: NWETF pentapeptide (peptide)
peptide: NWETF
Consider B7, for which the equilibrium dissociation constant (Kd) amounted to 480 nM.
